Laboratory results taken from paper PMC5730197, “Evolution-guided adaptation of an adenylation domain substrate specificity to an unusual amino acid” (PLoS ONE, 2017).
Positions count from the first letter of the chain named. Names and notes keep the numbering of the source.

Tests used:
Experiment in all cases: purified protein
Settings in all cases: amino acid-dependent exchange of 32P from PPi into ATP
purified protein [1] = substrate: CCCCC[C@H]1CN[C@H](C(=O)O)C1; format: biochemical, Streptomyces lincolnensis
purified protein [2] = substrate: CC[C@H]1CN[C@H](C(=O)O)C1; format: biochemical, Streptomyces lincolnensis
purified protein [3] = substrate: CCC[C@H]1CN[C@H](C(=O)O)C1; format: biochemical, Streptomyces lincolnensis
purified protein [4] = substrate: CCCC[C@H]1CN[C@H](C(=O)O)C1; format: biochemical, Streptomyces lincolnensis
purified protein [5] = substrate: O=C(O)[C@@H]1CCCN1
purified protein [6] = substrate: CCC[C@H]1CN[C@H](C(=O)O)C1; format: biochemical, Streptomyces caelestis
purified protein [7] = substrate: CCCCC[C@H]1CN[C@H](C(=O)O)C1; format: biochemical, Streptomyces caelestis

B1: LmbC (Streptomyces lincolnensis) (protein)
chain: MSSSVRLSTLLASAAEARPEAPAVLGETRLPVTYGELAARAGGIQAALAGLGVRAGDRVALLSGRTDADAVAAVHAILAAGAVYVPLDAASPPARWASVSRVCAPTAVVGERALLDRFAAAVPGPRRLALPSDGDELPAGRLDPVRSDGTDVAYLLTTSGSTGVPKCVAHTGAGAVAFLEWMVGAFPVGGDDVFACHAPLHFDVSVASVLGSALGGAALAPVPRELSGFPVELATWIAERAVTVWLSVPYPLARLSGLEERAARERLATLRTVVFAGDVFPHQRLAALMRCAPGARFLNIYGPTETNGCTYEVVDAPPAGPVPIGRPVECAECWVEDDDGRPVDAVGSVGELVVAGPTVAAGYWGVEGHGAERFRTGETCPGGRAYATGDQVRVLPGGRYAFLGRMDNMIKMRGQRFELEEVENAVRLAPGVEDCCVVKVDVRDDHSRLLAVVVGPGAGDPRTLREHCLTRLPSWAVPHRFLTAAALPLGSTGKVDRRALREELVTRGE
notes: full-length stand-alone A-domain, C-terminal His8 tag kept, pET42b (plmbC1), E. coli BL21(DE3)
B1 was tested, and the Km (purified protein [1]) was 0.06 ± 0.003 mM, the kcat (purified protein [1]) was 0.917 ± 0.0133 s⁻¹ and the kcat/Km (purified protein [1]) was 15300 M⁻¹ s⁻¹. It also gave a Km (purified protein [2]) of 6.4 ± 0.3 mM, a Km (purified protein [3]) of 0.28 ± 0.03 mM and a kcat (purified protein [3]) of 0.55 ± 0.0167 s⁻¹. It also gave a kcat/Km (purified protein [3]) of 2000 M⁻¹ s⁻¹ and a Km (purified protein [4]) of 0.12 ± 0.006 mM.

B2: LmbC (Streptomyces lincolnensis; V274C) (protein)
chain: B1 chain with V274C
notes: as for B1
In the case of B2, the Km (purified protein [3]) is reported as 0.39 ± 0.04 mM, the kcat (purified protein [3]) is reported as 0.65 ± 0.0167 s⁻¹ and the kcat/Km (purified protein [3]) is reported as 1670 M⁻¹ s⁻¹.

B3: LmbC (Streptomyces lincolnensis; G308V) (protein)
chain: B1 chain with G308V
notes: as for B1
B3 showed a Km (purified protein [3]) of 5.8 ± 0.6 mM, a kcat (purified protein [3]) of 0.0065 ± 0.000333 s⁻¹ and a kcat/Km (purified protein [3]) of 1.17 M⁻¹ s⁻¹.

B4: LmbC (Streptomyces lincolnensis; I300L) (protein)
chain: B1 chain with I300L
notes: as for B1
Work on B4 yielded a Km (purified protein [3]) of 0.24 ± 0.009 mM, a kcat (purified protein [3]) of 0.75 ± 0.00833 s⁻¹ and a kcat/Km (purified protein [3]) of 3080 M⁻¹ s⁻¹.

B5: LmbC (Streptomyces lincolnensis; A207F) (protein)
chain: B1 chain with A207F
notes: as for B1
Protein B5 has a Km (purified protein [3]) of 8.6 ± 1 mM, a kcat (purified protein [3]) of 0.0733 ± 0.005 s⁻¹ and a kcat/Km (purified protein [3]) of 8.5 M⁻¹ s⁻¹.

B6: LmbC (Streptomyces lincolnensis; L246Y) (protein)
chain: B1 chain with L246Y
notes: as for B1
B6 showed a Km (purified protein [5]) of 54 ± 2 mM, a kcat (purified protein [5]) of 0.217 s⁻¹ and a kcat/Km (purified protein [5]) of 4 M⁻¹ s⁻¹. It also gave a Km (purified protein [3]) of 33 ± 6 mM, a kcat (purified protein [3]) of 0.00617 ± 0.0005 s⁻¹ and a kcat/Km (purified protein [3]) of 0.183 M⁻¹ s⁻¹.

B7: CcbC (Streptomyces caelestis; V306G) (protein)
chain: MNTSTVRNSLSTLLADTAAATPGATALREPGGDTTYRDLAALAGGIQTALAEAGVRPGDRVAVLAPQTAAAVAAVHAVLSAGAAYVPLDPASPPARWAAVCGMSTPRAVVGTRDALAKLTAELPHLATVDLEAPWPEAPLAPVEREAADLGAVLPTSGSTGVPKGVAISREALLAFASWMVDTFEVGADDVIAGFSPLHFDVSVFSLFGAALTGAALAPAPPQLAGFPHELASWADDAGITVWYSVPYPLARLGTLDAVVLEQRLGRLRCVCFAGEVFPHRQLATLMSKMPWVRYTNLYGPTETNGCTFEQVLAPPDEAIAIGSPACGAECWVERDGERVDTEGAVGELIVAGPTVADGYWGNEDETARRFRFGREYRSGRAYATGDQVRILPDGRYAYLGRQDHMVKIRGQRLELEEVESVLGTADGVTGCCVVAVTPPGRPALLCAAVVGDQLDHAALRSHCRGRLPSWAIPQRFLEVPAIPLTSTGKTDRQEVRRRVMAELV
Work on B7 yielded a Km (purified protein [5]) of 37 ± 2 mM.

B8: CcbC (Streptomyces caelestis; V306G/Y244L) (protein)
chain: B7 chain with Y244L
notes: full-length stand-alone A-domain, N-terminal His6 tag kept, pET28b (pccbC), E. coli BL21(DE3)
B8 gave a Km (purified protein [6]) of 24 ± 3 mM, a kcat (purified protein [6]) of 0.001 ± 5e-05 s⁻¹ and a kcat/Km (purified protein [6]) of 0.0433 M⁻¹ s⁻¹.

B9: CcbC (Streptomyces caelestis) (protein)
chain: B7 chain with G306V
B9 showed a Km (purified protein [5]) of 0.36 ± 0.03 mM, a kcat (purified protein [5]) of 0.917 s⁻¹ and a kcat/Km (purified protein [5]) of 2550 M⁻¹ s⁻¹.

B10: CcbC (Streptomyces caelestis; F205A/V306G/Y244L) (protein)
chain: B7 chain with F205A, Y244L
notes: as for B8
Work on B10 yielded a Km (purified protein [7]) of 2.5 ± 1 mM, a kcat (purified protein [7]) of 0.000417 ± 5e-05 s⁻¹ and a kcat/Km (purified protein [7]) of 0.167 M⁻¹ s⁻¹. It also gave a Km (purified protein [6]) of 6.4 ± 1 mM, a kcat (purified protein [6]) of 0.000333 ± 1.67e-05 s⁻¹ and a kcat/Km (purified protein [6]) of 0.05 M⁻¹ s⁻¹.
